Tested on: fibrin (formed in the agarose plate from fibrinogen and thrombin)

recombinant Desmodus rotundus salivary plasminogen activator alpha2 (DSPAα2) from transgenic T1 tobacco seeds, with C-terminal 6xHis tag and KDEL
fibrin degradation: recombinant proteins t-PA, DSPAα1 and DSPAα2 produced in this manner can degrade fibrin
